The values below come from patent US20040053819A1.

The test deals with human GLP-1 receptor (human) (UniProt P43220). In words: cell-based or functional assay.
Sequence of human GLP-1 receptor (human) (P43220 24-463): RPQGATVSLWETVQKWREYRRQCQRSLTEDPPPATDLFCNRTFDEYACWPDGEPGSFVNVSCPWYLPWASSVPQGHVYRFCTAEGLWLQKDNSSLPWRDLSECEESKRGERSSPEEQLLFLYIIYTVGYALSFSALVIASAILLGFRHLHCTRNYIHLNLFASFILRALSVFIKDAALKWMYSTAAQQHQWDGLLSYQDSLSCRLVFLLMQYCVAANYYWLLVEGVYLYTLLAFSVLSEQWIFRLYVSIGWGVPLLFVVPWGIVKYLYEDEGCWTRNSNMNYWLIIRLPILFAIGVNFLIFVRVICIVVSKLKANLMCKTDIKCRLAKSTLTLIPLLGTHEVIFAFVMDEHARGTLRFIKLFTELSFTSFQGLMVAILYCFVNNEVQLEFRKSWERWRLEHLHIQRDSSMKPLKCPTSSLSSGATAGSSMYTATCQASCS
Consider “Arg^34Lys^26-(N-ε-(γ-Glu(N-α-hexadecanoyl)))-GLP-1(7-37) (peptide)”, for which the In vitro activity relative to Val^8-GLP-1(7-37)OH (EC50 potency, CRE-BLAM β-lactamase reporter in HEK-293 cells expressing human GLP-1 receptor) (fold relative to Val^8-GLP-1(7-37)OH) was found to be 1.92.

The substance GLP-1(7-37)OH (peptide) displayed an In vitro activity relative to Val^8-GLP-1(7-37)OH (EC50 potency, CRE-BLAM β-lactamase reporter in HEK-293 cells expressing human GLP-1 receptor) (fold relative to Val^8-GLP-1(7-37)OH) of 2.06.

Gly^8-GLP-1(7-37)OH (peptide): the In vitro activity relative to Val^8-GLP-1(7-37)OH (EC50 potency, CRE-BLAM β-lactamase reporter in HEK-293 cells expressing human GLP-1 receptor) (fold relative to Val^8-GLP-1(7-37)OH) was 1.67.

As for Val^8-Ala^27-GLP-1(7-37)OH (peptide), the In vitro activity relative to Val^8-GLP-1(7-37)OH (EC50 potency, CRE-BLAM β-lactamase reporter in HEK-293 cells expressing human GLP-1 receptor) (fold relative to Val^8-GLP-1(7-37)OH) came out at 1.

As to Val^8-Arg^26-GLP-1(7-37)OH (peptide), the In vitro activity relative to Val^8-GLP-1(7-37)OH (EC50 potency, CRE-BLAM β-lactamase reporter in HEK-293 cells expressing human GLP-1 receptor) (fold relative to Val^8-GLP-1(7-37)OH) came out at 1.47.

In turn, Val^8-GLP-1(7-36)NH2 (peptide) registered an In vitro activity relative to Val^8-GLP-1(7-37)OH (EC50 potency, CRE-BLAM β-lactamase reporter in HEK-293 cells expressing human GLP-1 receptor) (fold relative to Val^8-GLP-1(7-37)OH) of 1.06.

For the substance Val^8-GLP-1(7-37)OH (peptide), the In vitro activity relative to Val^8-GLP-1(7-37)OH (EC50 potency, CRE-BLAM β-lactamase reporter in HEK-293 cells expressing human GLP-1 receptor) (fold relative to Val^8-GLP-1(7-37)OH) was found to be 1.

Val^8-Glu^22-GLP-1(7-37)OH (peptide) displayed an In vitro activity relative to Val^8-GLP-1(7-37)OH (EC50 potency, CRE-BLAM β-lactamase reporter in HEK-293 cells expressing human GLP-1 receptor) (fold relative to Val^8-GLP-1(7-37)OH) of 3.33.

As for Val^8-Leu^16-GLP-1(7-37)OH (peptide), the In vitro activity relative to Val^8-GLP-1(7-37)OH (EC50 potency, CRE-BLAM β-lactamase reporter in HEK-293 cells expressing human GLP-1 receptor) (fold relative to Val^8-GLP-1(7-37)OH) stood at 1.13.

Substance Val^8-Lys^22-GLP-1(7-37)OH (peptide) registered an In vitro activity relative to Val^8-GLP-1(7-37)OH (EC50 potency, CRE-BLAM β-lactamase reporter in HEK-293 cells expressing human GLP-1 receptor) (fold relative to Val^8-GLP-1(7-37)OH) of 1.22.

For the substance Val^8-Trp^12-GLP-1(7-37)OH (peptide), the In vitro activity relative to Val^8-GLP-1(7-37)OH (EC50 potency, CRE-BLAM β-lactamase reporter in HEK-293 cells expressing human GLP-1 receptor) (fold relative to Val^8-GLP-1(7-37)OH) amounted to 1.07.

Val^8-Tyr^12-GLP-1(7-37)OH (peptide): the In vitro activity relative to Val^8-GLP-1(7-37)OH (EC50 potency, CRE-BLAM β-lactamase reporter in HEK-293 cells expressing human GLP-1 receptor) (fold relative to Val^8-GLP-1(7-37)OH) stood at 1.73.
